Numbered stars: 1 amine (or outer) side, 2 acyl side, 3 side chain; on linkers, the order of the positions; unused ones are H or OH. Bridge positions count the residues as written; N and C are the ends. Side chains are listed from the residue outwards. Ends that are not written are not given here. * marks the point of attachment. C20 diacid = O=C(O)CCCCCCCCCCCCCCCCCCC(=O)*; γGlu = O=C(O)[C@H](CCC(=O)[*:2])N[*:1]; AEEA = NCCOCCOCC(=O)O
T1: rat calcitonin receptor (rat, UniProt P32214 25-516)
T1 construct: whole, on cells; Membranes prepared from transiently transfected BHK tk'ts 13 cells (Assay VIII); also called rCTR; rCT
T1 sequence (looked up): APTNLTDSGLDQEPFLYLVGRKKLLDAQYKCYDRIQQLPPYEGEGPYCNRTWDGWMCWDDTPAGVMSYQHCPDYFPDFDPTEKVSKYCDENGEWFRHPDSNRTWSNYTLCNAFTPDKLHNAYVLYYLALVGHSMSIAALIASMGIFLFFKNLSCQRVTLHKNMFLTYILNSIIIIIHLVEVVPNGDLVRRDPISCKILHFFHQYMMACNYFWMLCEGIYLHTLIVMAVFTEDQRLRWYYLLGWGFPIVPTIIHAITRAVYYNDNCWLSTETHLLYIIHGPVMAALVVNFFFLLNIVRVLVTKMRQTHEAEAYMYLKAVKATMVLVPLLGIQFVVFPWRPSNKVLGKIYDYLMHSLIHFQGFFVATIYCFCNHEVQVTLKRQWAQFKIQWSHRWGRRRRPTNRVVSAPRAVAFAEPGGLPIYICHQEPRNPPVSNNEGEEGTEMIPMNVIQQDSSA

T2: human calcitonin receptor (human, UniProt P30988 25-474)
T2 construct: whole, on cells; Membranes prepared from a stably transfected BHK cell line (Assay VII); also called hCTR; hCT
T2 sequence (looked up): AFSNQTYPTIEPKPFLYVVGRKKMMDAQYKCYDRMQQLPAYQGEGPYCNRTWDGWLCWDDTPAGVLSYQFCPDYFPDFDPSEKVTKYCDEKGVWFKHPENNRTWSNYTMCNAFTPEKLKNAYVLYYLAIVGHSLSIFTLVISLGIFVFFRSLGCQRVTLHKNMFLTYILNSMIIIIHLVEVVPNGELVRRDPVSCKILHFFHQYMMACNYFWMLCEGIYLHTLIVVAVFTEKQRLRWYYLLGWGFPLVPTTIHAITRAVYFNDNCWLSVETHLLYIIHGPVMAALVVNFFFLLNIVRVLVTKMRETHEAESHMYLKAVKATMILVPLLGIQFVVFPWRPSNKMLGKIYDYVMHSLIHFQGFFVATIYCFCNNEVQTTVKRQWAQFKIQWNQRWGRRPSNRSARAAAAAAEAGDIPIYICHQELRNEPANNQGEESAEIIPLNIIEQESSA

T3: rat amylin receptor (rat calcitonin receptor + rat RAMP 3) (rat, UniProt P32214 25-516; Q9JJ73 23-147)
T3 construct: whole, on cells; Membranes prepared from transiently transfected BHK tk'ts 13 cells (Assay VI); also called rAmylin-R; rAmylin
T3 sequence (looked up) 1: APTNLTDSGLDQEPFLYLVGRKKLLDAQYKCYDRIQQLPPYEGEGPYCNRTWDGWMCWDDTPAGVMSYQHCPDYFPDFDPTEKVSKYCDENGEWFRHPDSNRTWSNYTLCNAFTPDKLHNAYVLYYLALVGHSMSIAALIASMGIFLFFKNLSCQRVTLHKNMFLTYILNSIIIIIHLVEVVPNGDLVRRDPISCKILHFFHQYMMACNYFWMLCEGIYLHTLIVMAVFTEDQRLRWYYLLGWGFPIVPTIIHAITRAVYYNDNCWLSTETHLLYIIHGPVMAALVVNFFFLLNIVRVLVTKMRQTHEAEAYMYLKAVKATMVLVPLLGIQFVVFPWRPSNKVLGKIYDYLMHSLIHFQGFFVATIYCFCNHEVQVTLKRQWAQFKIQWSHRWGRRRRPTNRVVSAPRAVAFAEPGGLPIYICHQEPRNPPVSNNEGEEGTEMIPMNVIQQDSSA
T3 sequence (looked up) 2: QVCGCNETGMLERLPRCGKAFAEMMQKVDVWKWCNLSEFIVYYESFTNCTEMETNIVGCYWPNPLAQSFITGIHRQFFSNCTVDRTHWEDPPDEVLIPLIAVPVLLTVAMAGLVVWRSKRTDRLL


Experiments:
rat calcitonin receptor [1] = molecular target: T1, rat calcitonin receptor; experiment: ratio of binding IC50s: rat calcitonin receptor / rat amylin receptor (reference)
[2] = molecular target: T2, human calcitonin receptor; experiment: ratio of binding IC50s: human calcitonin receptor / human amylin receptor (reference)
Description: The resulting pellet was resuspended, homogenized and centrifuged (20.000 rpm, 15 min) in a buffer containing 20 mM Na-HEPES and 0.1 mM EDTA (pH 7.4, buffer 2). The resulting pellet was resuspended in buffer 2 and protein concentration was measured (BCA protein Assay, Pierce). The homogenate was kept cold during the whole procedure. The membranes were kept at −80° C. until use. The assay was performed in a 384 well Optiplate (PerkinElmer) in a total volume of 40 ul. Membranes were mixed with SPA beads. Final concentration of membranes 35 ng/μL final and SPA beads was 0.05 mg/well. Test-compounds were dissolved in DMSO and further diluted in assay buffer (50 mM Hepes, pH 7.4, 1 mM CaCl2, 5 mM MgCl₂, 0.1% OA and 0.02% Tween20). […] The final mixture was incubated with shaking at 400 rpm for 120 min at 25° C. prior to centrifugation (1500 rpm, 10 min). Samples were analyzed on TopCounter™ (Packard). The IC₅₀ was calculated using (one site binding competition analysis) GraphPad Prism5 as a measure of receptor affinity.
Membranes were prepared in the following way; the cells were rinsed with PBS and incubated with Versene for approximately 5 min before harvesting. The cells were flushed with PBS and the cell-suspension was centrifuged for 5 min at 1000 rpm. Cells were homogenized (Ultrathurrax) in a buffer containing 20 mM Na-HEPES and 10 mM EDTA (pH 7.4) and centrifuged at 20.000 rpm for 15 min. The resulting pellet was resuspended, homogenized and centrifuged (20.000 rpm, 15 min) in a buffer containing 20 mM Na-HEPES and 0.1 mM EDTA (pH 7.4, buffer 2). The resulting pellet was resuspended in buffer 2 and protein concentration was measured (BCA protein Assay, Pierce). The homogenate was kept cold during the whole procedure. The membranes were kept at −80° C. until use. Assay was performed in a 384 well Optiplate (PerkinElmer) in a total volume of 40 ul. Membranes were mixed with SPA beads.

rat calcitonin receptor [3] = molecular target: T1, rat calcitonin receptor; experiment: SPA competition vs 125I-calcitonin, membranes of BHK cells with rat calcitonin receptor (Assay VIII)
[4] = molecular target: T3, rat amylin receptor (rat calcitonin …); experiment: SPA competition vs 125I-rat amylin, membranes of BHK cells with rat calcitonin receptor + rat RAMP3 (Assay VI)
Description: The binding assay was performed using scintillation proximity assay (SPA) beads (RPNQ0001) from PerkinElmer and cell membranes from the Amylin 3(a)/CRE-luc cells (as described in Assay (II)) were used. Membranes were prepared in the following way; the cells were rinsed with PBS and incubated with Versene for approximately 5 min before harvesting. The cells were flushed with PBS and the cell-suspension was centrifuged for 5 min at 1000 rpm. Cells were homogenized (ultrathurrax) in a buffer containing 20 mM Na-HEPES and 10 mM EDTA (pH 7.4) and centrifuged at 20.000 rpm for 15 min. The resulting pellet was resuspended, homogenized and centrifuged (20.000 rpm, 15 min) in a buffer containing 20 mM Na-HEPES and 0.1 mM EDTA (pH 7.4, buffer 2). The resulting pellet was resuspended in buffer 2 and protein concentration was measured (BCA protein Assay, Pierce). The homogenate was kept cold during the whole procedure. The membranes were kept at −80° C. until use. The assay was performed in a 384 well Optiplate (PerkinElmer) in a total volume of 40 ul. Membranes were mixed with SPA beads. Final concentration of membranes 35 ng/μL final and SPA beads was 0.05 mg/well. Test-compounds were dissolved in DMSO and further diluted in assay buffer (50 mM Hepes, pH 7.4, 1 mM CaCl2, 5 mM MgCl₂, 0.1% OA and 0.02% Tween20). […] The final mixture was incubated with shaking at 400 rpm for 120 min at 25° C. prior to centrifugation (1500 rpm, 10 min). Samples were analyzed on TopCounter™ (Packard). The IC₅₀ was calculated using (one site binding competition analysis) GraphPad Prism5 as a measure of receptor affinity.
Cells were grown in DMEM with 10% FBS and 1% Pen/Strep. Approximately 48 hours after transfection, the cells were harvested and membranes were prepared.

| Binder | Ratio rCT/rAmylin binding (rat calcitonin receptor [1]) | Ratio hCT/hAmylin binding [2] | IC50 (rat calcitonin receptor [3]) | IC50 [4] |
| --- | --- | --- | --- | --- |
| K([AEEA-γGlu-C20 diacid])CNTATCATQRLANFLRHSSPNFGAIPSSTNVGHNTY-NH2 (disulfide 2-7; N-terminus assumed; SMILES CC[C@H](C)[C@H](NC(=O)[C@H](C)NC(=O)CNC(=O)[C@H](Cc1ccccc1)NC(=O)[C@H](CC(N)=O)NC(=O)[C@@H]1CCCN1C(=O)[C@H](CO)NC(=O)[C@H](CO)NC(=O)[C@H](Cc1c[nH]cn1)NC(=O)[C@H](CCCNC(=N)N)NC(=O)[C@H](CC(C)C)NC(=O)[C@H](Cc1ccccc1)NC(=O)[C@H](CC(N)=O)NC(=O)[C@H](C)NC(=O)[C@H](CC(C)C)NC(=O)[C@H](CCCNC(=N)N)NC(=O)[C@H](CCC(N)=O)NC(=O)[C@@H](NC(=O)[C@H](C)NC(=O)[C@@H]1CSSC[C@H](NC(=O)[C@@H](N)CCCCNC(=O)COCCOCCNC(=O)CC[C@H](NC(=O)CCCCCCCCCCCCCCCCCCC(=O)O)C(=O)O)C(=O)N[C@@H](CC(N)=O)C(=O)N[C@@H]([C@@H](C)O)C(=O)N[C@@H](C)C(=O)N[C@@H]([C@@H](C)O)C(=O)N1)[C@@H](C)O)C(=O)N1CCC[C@H]1C(=O)N[C@@H](CO)C(=O)N[C@@H](CO)C(=O)N[C@H](C(=O)N[C@@H](CC(N)=O)C(=O)N[C@H](C(=O)NCC(=O)N[C@@H](Cc1c[nH]cn1)C(=O)N[C@@H](CC(N)=O)C(=O)N[C@H](C(=O)N[C@@H](Cc1ccc(O)cc1)C(N)=O)[C@@H](C)O)C(C)C)[C@@H](C)O, Analogue of human amylin; also called compound 76) | 56.8 | 80 | 38.9 nM | 0.686 nM |
| K([AEEA-γGlu-C20 diacid])CNTATCATQRLANFLRHSSPNFGAIPPSTPVGSNTY-NH2 (disulfide 2-7, Analogue of human amylin; also called compound 53) | 130 | 104 | 10.9 nM | 0.084 nM |

These reach a lower IC50 (rat calcitonin receptor [3]). Values come first.

| Ratio rCT/rAmylin binding (rat calcitonin receptor [1]) | Ratio hCT/hAmylin binding [2] | IC50 (rat calcitonin receptor [3]) | IC50 [4] | Binder |
| --- | --- | --- | --- | --- |
| 179 | 146 | 8.79 nM | 0.049 nM | K([AEEA-γGlu-C20 diacid])CNTATCATQRLANFLRHSSPNFGAIPSPTPVGSNTY-NH2 (disulfide 2-7; N-terminus assumed; SMILES CC[C@H](C)[C@H](NC(=O)[C@H](C)NC(=O)CNC(=O)[C@H](Cc1ccccc1)NC(=O)[C@H](CC(N)=O)NC(=O)[C@@H]1CCCN1C(=O)[C@H](CO)NC(=O)[C@H](CO)NC(=O)[C@H](Cc1c[nH]cn1)NC(=O)[C@H](CCCNC(=N)N)NC(=O)[C@H](CC(C)C)NC(=O)[C@H](Cc1ccccc1)NC(=O)[C@H](CC(N)=O)NC(=O)[C@H](C)NC(=O)[C@H](CC(C)C)NC(=O)[C@H](CCCNC(=N)N)NC(=O)[C@H](CCC(N)=O)NC(=O)[C@@H](NC(=O)[C@H](C)NC(=O)[C@@H]1CSSC[C@H](NC(=O)[C@@H](N)CCCCNC(=O)COCCOCCNC(=O)CC[C@H](NC(=O)CCCCCCCCCCCCCCCCCCC(=O)O)C(=O)O)C(=O)N[C@@H](CC(N)=O)C(=O)N[C@@H]([C@@H](C)O)C(=O)N[C@@H](C)C(=O)N[C@@H]([C@@H](C)O)C(=O)N1)[C@@H](C)O)C(=O)N1CCC[C@H]1C(=O)N[C@@H](CO)C(=O)N1CCC[C@H]1C(=O)N[C@H](C(=O)N1CCC[C@H]1C(=O)N[C@H](C(=O)NCC(=O)N[C@@H](CO)C(=O)N[C@@H](CC(N)=O)C(=O)N[C@H](C(=O)N[C@@H](Cc1ccc(O)cc1)C(N)=O)[C@@H](C)O)C(C)C)[C@@H](C)O, Analogue of human amylin; also called compound 54) |
| 77.2 | 51.8 | 6.25 nM | 0.081 nM | K([AEEA-γGlu-C20 diacid])CNTATCATQRLANFLRHSSPNFGAIPPSTNVGPNTY-NH2 (disulfide 2-7; N-terminus assumed; SMILES CC[C@H](C)[C@H](NC(=O)[C@H](C)NC(=O)CNC(=O)[C@H](Cc1ccccc1)NC(=O)[C@H](CC(N)=O)NC(=O)[C@@H]1CCCN1C(=O)[C@H](CO)NC(=O)[C@H](CO)NC(=O)[C@H](Cc1c[nH]cn1)NC(=O)[C@H](CCCNC(=N)N)NC(=O)[C@H](CC(C)C)NC(=O)[C@H](Cc1ccccc1)NC(=O)[C@H](CC(N)=O)NC(=O)[C@H](C)NC(=O)[C@H](CC(C)C)NC(=O)[C@H](CCCNC(=N)N)NC(=O)[C@H](CCC(N)=O)NC(=O)[C@@H](NC(=O)[C@H](C)NC(=O)[C@@H]1CSSC[C@H](NC(=O)[C@@H](N)CCCCNC(=O)COCCOCCNC(=O)CC[C@H](NC(=O)CCCCCCCCCCCCCCCCCCC(=O)O)C(=O)O)C(=O)N[C@@H](CC(N)=O)C(=O)N[C@@H]([C@@H](C)O)C(=O)N[C@@H](C)C(=O)N[C@@H]([C@@H](C)O)C(=O)N1)[C@@H](C)O)C(=O)N1CCC[C@H]1C(=O)N1CCC[C@H]1C(=O)N[C@@H](CO)C(=O)N[C@H](C(=O)N[C@@H](CC(N)=O)C(=O)N[C@H](C(=O)NCC(=O)N1CCC[C@H]1C(=O)N[C@@H](CC(N)=O)C(=O)N[C@H](C(=O)N[C@@H](Cc1ccc(O)cc1)C(N)=O)[C@@H](C)O)C(C)C)[C@@H](C)O, Analogue of human amylin; also called compound 55) |

Source: US20140087995A1 (published 2014)
